Experimental data published in paper PMC8888459.

Biological target: NIA–Isu1 complex with C. thermophilum Isu1 (S. cerevisiae | E. coli (endogenous in the expression host) | C. thermophilum) (UniProt P25374)
Assay: pull-down; competition: Yfh1^GST (2.5 μM) with NIA (5 μM) and Isu1Ct (7.5 μM), then Yah1 WT (increasing concentrations, 50 μM) or Yah1(DD/KK) (50 μM) added; glutathione resin; densitometry, amount without Yah1 set as 100%; buffer PD

Sequence of NIA–Isu1 complex with C. thermophilum Isu1 (S. cerevisiae | E. coli (endogenous in the expression host) | C. thermophilum) (P25374 whole entry, looked up, one chain of several): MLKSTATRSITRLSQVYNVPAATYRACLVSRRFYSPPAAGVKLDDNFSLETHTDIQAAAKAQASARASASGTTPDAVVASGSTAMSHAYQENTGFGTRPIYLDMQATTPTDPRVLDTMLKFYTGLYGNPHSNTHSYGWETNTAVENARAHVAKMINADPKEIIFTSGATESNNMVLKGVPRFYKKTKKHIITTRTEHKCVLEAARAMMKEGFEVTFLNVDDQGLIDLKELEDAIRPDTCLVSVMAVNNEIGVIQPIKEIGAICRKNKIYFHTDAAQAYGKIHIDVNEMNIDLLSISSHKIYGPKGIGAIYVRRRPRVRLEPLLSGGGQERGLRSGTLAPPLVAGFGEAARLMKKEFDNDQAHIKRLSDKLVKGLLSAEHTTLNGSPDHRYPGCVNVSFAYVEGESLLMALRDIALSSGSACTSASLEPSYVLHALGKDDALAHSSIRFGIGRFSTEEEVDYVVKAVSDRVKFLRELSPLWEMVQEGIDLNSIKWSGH

percent of the control left pulled down with Yfh1^GST at 75 μM Yah1: 35%
B1: Yah1 (untagged, holo) (natural protein)
chain: IAAHLLRTSPSLLTRTTTTTRFLPFSTSSFLNHGHLKKPKPGEELKITFILKDGSQKTYEVCEGETILDIAQGHNLDMEGACGGSCACSTCHVIVDPDYYDALPEPEDDENDMLDLAYGLTETSRLGCQIKMSKDIDGIRVALPQMTRNVNNNDFS
